Test results from US20260098102A1 (NATIONAL UNIVERSITY CORPORATION KOBE UNIVERSITY, published 2026).

T1: human SIRPA_V4 (human, UniProt P78324 31-504)
T1 construct: FLAG-tagged (pFLAG V5-DEST), on 293α cells; also called human SIRPA Variant 4
T1 chain: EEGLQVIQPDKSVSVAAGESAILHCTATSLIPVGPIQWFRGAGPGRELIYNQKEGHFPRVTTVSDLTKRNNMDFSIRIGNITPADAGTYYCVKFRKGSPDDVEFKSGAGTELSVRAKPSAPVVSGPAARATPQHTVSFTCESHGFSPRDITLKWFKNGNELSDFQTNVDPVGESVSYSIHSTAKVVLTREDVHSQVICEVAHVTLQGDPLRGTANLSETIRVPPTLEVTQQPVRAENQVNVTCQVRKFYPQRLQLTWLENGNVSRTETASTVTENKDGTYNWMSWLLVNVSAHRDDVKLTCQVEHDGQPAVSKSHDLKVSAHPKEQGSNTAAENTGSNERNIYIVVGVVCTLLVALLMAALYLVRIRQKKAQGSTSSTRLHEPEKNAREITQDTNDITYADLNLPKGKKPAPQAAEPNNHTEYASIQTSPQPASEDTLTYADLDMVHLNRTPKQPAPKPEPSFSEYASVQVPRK


Experiments:
human SIRPA_V8 = target: T2, human SIRPA_V8 (human, UniProt P78324 31-504); test: cell-based ELISA on 293α cells expressing FLAG-tagged SIRPA_V8; Abs 490 normalized to FLAG tag [iv]
T2 construct: FLAG-tagged (pFLAG V5-DEST), on 293α cells; also called human SIRPA Variant 8
Experimental: (§1) The 293a cells, described in Example 1)-6, were prepared at 5× 10⁵ cells/mL in a 10% FBS-containing DMEM medium. pFLAG V5-DEST-SIRPA_V1-V10, pFLAG V5-DEST-monkey SIRPA, pFLAG V5-DEST-mouse SIRPA, or pFLAG V5-DEST was introduced into the cells using Lipofectamine LTX (Invitrogen), and 100 μL each was aliquoted to a 96-well plate (Corning Incorporated) and cultured overnight in a 10% FBS-containing DMEM medium at 37° C. under a 5% CO₂ condition. The obtained introduced cells were used for cell-based ELISA in a state that they adhered. After the culture supernatant was removed, 50 μL per well of hD13_HIL3, hD13_HIL4h, hD13_H2L2, hD13_H2L3, or cD13 prepared in Examples 6 and 7 or a control antibody was added to each of various SIRPA genes-introduced cells at a final concentration of 0 to 10,000 ng/ml, and the mixture was allowed to stand at 4° C. for one hour. Thereafter, binding to human SIRPA was evaluated in the same manner as in Example 5-1.

human SIRPA_V3 = target: T3, human SIRPA_V3 (human, UniProt P78324 31-504); test: cell-based ELISA on 293α cells expressing FLAG-tagged SIRPA_V3; Abs 490 normalized to FLAG tag [iii]
T3 construct: FLAG-tagged (pFLAG V5-DEST), on 293α cells; also called human SIRPA Variant 3
T3 sequence (P78324 other isoform, or with tags, fused parts or gaps limits assumed): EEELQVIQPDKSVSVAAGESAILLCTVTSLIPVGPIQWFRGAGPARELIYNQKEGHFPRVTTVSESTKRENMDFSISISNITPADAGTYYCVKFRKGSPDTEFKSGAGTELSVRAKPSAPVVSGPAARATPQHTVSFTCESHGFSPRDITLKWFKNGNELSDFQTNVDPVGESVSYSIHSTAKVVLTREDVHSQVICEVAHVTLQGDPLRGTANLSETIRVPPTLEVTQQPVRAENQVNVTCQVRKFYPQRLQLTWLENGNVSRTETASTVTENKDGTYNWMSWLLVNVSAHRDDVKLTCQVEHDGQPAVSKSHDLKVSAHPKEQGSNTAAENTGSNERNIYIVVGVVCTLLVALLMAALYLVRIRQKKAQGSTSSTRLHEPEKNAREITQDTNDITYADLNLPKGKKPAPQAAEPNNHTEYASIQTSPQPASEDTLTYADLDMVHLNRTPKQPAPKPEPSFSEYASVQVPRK
Experimental: as §1

human SIRPA_V4 = target: T1, human SIRPA_V4; test: cell-based ELISA on 293α cells expressing FLAG-tagged SIRPA_V4; Abs 490 normalized to FLAG tag [iv]
Experimental: as §1

human SIRPA_V9 = target: T4, human SIRPA_V9 (human, UniProt P78324 31-504); test: cell-based ELISA on 293α cells expressing FLAG-tagged SIRPA_V9; Abs 490 normalized to FLAG tag [i]
T4 construct: FLAG-tagged (pFLAG V5-DEST), on 293α cells; also called human SIRPA Variant 9
Experimental: as §1

human SIRPA_V1 protein = target: T5, human SIRPA_V1 protein (human, UniProt P78324 31-504); test: blocking cell-based ELISA: peroxidase-labeled CD47-Fc (1 µg/mL) on 293α cells expressing SIRPA_V1; y axis = CD47-Fc signal relative to no antibody (100)
T5 construct: Expressed on 293α cells from pcDNA3.2 V5-DEST or pFLAG V5-DEST (FLAG-tagged) vectors; also called human SIRPA Variant 1; hSIRPA V1
T5 sequence (P78324 31-504 limits assumed): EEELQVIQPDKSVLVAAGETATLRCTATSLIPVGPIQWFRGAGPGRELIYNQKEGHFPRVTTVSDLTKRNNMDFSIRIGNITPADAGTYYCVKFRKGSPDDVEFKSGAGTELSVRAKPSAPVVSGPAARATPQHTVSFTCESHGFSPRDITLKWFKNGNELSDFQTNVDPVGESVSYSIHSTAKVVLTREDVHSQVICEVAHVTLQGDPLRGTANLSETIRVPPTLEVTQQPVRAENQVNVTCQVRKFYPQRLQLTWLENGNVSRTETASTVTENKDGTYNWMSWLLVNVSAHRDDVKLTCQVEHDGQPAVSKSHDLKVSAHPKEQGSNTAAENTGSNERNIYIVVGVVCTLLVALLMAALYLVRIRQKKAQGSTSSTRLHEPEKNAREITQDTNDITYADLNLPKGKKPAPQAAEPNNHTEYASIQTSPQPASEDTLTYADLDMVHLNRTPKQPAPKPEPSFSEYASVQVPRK
Experimental: After the culture supernatant of human SIRPA or monkey SIRPA expression vector-introduced 293α cells prepared in Example 8)-1 was removed, 50 μL per well of hD13_HIL3, hD13_HIL4h, hD13_H2L2, or hD13_H2L3 diluted with 5% FBS-containing PBS to a final concentration of 0 to 10,000 ng/ml was added to each of pcDNA3.2 V5-DEST-SIRPA_V1, pcDNA3.2 V5-DEST-SIRPA_V2, pcDNA3.2 V5-DEST-monkey SIRPA, and pcDNA3.2 V5-DEST-introduced 293α cells, immediately followed by addition of peroxidase-labeled CD47-Fc prepared with 5% FBS-containing PBS at 1 μg/mL, and the mixture was allowed to stand at 4° C. for one hour. Thereafter, the SIRPA-CD47 binding inhibitory activity was evaluated in the same manner as in 1)-6-3.

SIRPA_V1_IgV = target: T6, SIRPA_V1_IgV (human, UniProt P78324 31-149); test: SPR Biacore T200, antibody captured on anti-human IgG (Fc), SIRPA_V1_IgV as analyte, 1:1 model
T6 construct: Secreted recombinant protein from FreeStyle 293F cells
T6 sequence (P78324 other isoform, or with tags, fused parts or gaps limits assumed): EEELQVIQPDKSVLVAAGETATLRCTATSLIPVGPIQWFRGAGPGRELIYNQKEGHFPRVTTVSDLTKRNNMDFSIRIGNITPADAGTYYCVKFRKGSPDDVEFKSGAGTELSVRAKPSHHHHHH
Experimental: The dissociation constants of hD13_HIL3, hD13_HIL4, hD13_H2L2, and hD13_H2L3 prepared in Example 7 against human SIRPA_V1_IgV and monkey SIRPA_ECD prepared in Example 1 were measured by a capture method of capturing a humanized antibody as a ligand to an Anti-Human IgG (Fc) antibody immobilized using Human Antibody Capture Kit (GE Healthcare Bioscience Corp.) and measuring an antigen as an analyte, using Biacore T200 (GE Healthcare Bioscience Corp.). HBS-EP+ (GE Healthcare Bioscience Corp.) was used as a running buffer, and CM5 (GE Healthcare Bioscience Corp.) was used as a sensor chip. Onto the chip, 1 μg/mL humanized antibody was added at 10 μL/min for 60 seconds, and then a serially diluted solution (0.5 to 8 μg/mL) of human SIRPA protein or a serially diluted solution (1 to 16 μg/mL) of monkey SIRPA protein was added as an antigen at a flow rate of 30 μL/min for 120 seconds, and subsequently the dissociation phase for 600 seconds was monitored. As a regenerant, 3 M magnesium chloride (GE Healthcare Bioscience Corp.) was added at a flow rate of 20 μL/min for 30 seconds. For data analysis, a binding rate constant (ka), a dissociation rate constant (kd), and a dissociation constant (KD; KD=kd/ka) were calculated using a 1:1 binding model.

| Binder | EC50 (read off the curve) (human SIRPA_V8) [µg/mL] | EC50 (read off the curve) (human SIRPA_V3) [µg/mL] | EC50 (read off the curve) (human SIRPA_V4) [µg/mL] | EC50 (read off the curve) (human SIRPA_V9) [µg/mL] | IC50 (read off the curve) (human SIRPA_V1 protein) [µg/mL] | Kd (SIRPA_V1_IgV) [nM] |
| --- | --- | --- | --- | --- | --- | --- |
| human chimeric anti-SIRPA antibody cD13 (antibody, human IgG4 S228P, kappa, F234A L235A, V domains shown, Human IgG4proFALA heavy chain, human kappa light chain; also called cD13 (IgG4pf); human chimeric antibody D13) VH: EVQLVESGGGLVQPGRSLKLSCLASGFTFSDYGMIWVRQAPGKGLEWVASISSSSSYIYYADTVKGRFTISRENAKNTLFLHMTSLRSEDTALYYCARRYYGFNYPFDYWGQGVMVTVSS VL: DTVLTQSPALAVSLGQRVTISCGASKSVRTYMHWYQQKSGQQPKLLIYSASNLEAGVPSRFSGSGSGTDFTLTIDPVEADDIANYYCQQSNEPPYTFGAGTKLELKR | ~0.04 | ~0.04 | ~0.04 | ~0.04 | ~0.7 |  |
| humanized anti-SIRPA antibody hD13_H1L3 (antibody, human IgG4 S228P, kappa, F234A L235A, V domains shown, hH1 heavy chain (IgG4proFALA) and hL3 kappa light chain; also called hD13_HIL3; HIL3 antibody) VH: QVQLVESGGGVVQPGRSLRLSCAASGFTFSDYGMIWVRQAPGKGLEWVASISSSSSYIYYADSVKGRFTISRDNSKNRLYLQMNSLRAEDTAVYYCARRYYGFNYPFDYWGQGTMVTVSS VL: DTQLTQSPSSLSASVGQRVTITCGASKSVRTYMHWYQQKPGKQPKLLIYSASNLEAGVPSRFSGSGSGTDFTLTISSLQPEDFATYYCQQSNEPPYTFGQGTKLEIKR | ~0.04 | ~0.03 | ~0.03 | ~0.04 | ~0.5 | 0.0785 |
| humanized anti-SIRPA antibody hD13_H1L4 (antibody, human IgG4 S228P, kappa, F234A L235A, V domains shown, hH1 heavy chain (IgG4proFALA) and hL4 kappa light chain; also called hD13_HIL4; hD13_HIL4h) VH: QVQLVESGGGVVQPGRSLRLSCAASGFTFSDYGMIWVRQAPGKGLEWVASISSSSSYIYYADSVKGRFTISRDNSKNRLYLQMNSLRAEDTAVYYCARRYYGFNYPFDYWGQGTMVTVSS VL: DTVLTQSPDSLAVSLGQRATINCGASKSVRTYMHWYQQKPGQQPKLLIYSASNLEAGVPSRFSGSGSGTDFTLTISSLQAEDVAVYYCQQSNEPPYTFGQGTKVEIKR | ~0.04 | ~0.03 | ~0.04 | ~0.04 | ~0.5 | 0.107 |
| humanized anti-SIRPA antibody hD13_H2L2 (antibody, human IgG4 S228P, kappa, F234A L235A, V domains shown, hH2 heavy chain (IgG4proFALA) and hL2 kappa light chain; also called H2L2 antibody) VH: EVQLVESGGGVVQPGRSLRLSCAASGFTFSDYGMIWVRQAPGKGLEWVASISSSSSYIYYADSVKGRFTISRDNSKNTLYLQMNSLRAEDTAVYYCARRYYGFNYPFDYWGQGTMVTVSS VL: AIQLTQSPSSLSASVGQRVTITCGASKSVRTYMHWYQQKPGKAPKLLIYSASNLEAGVPSRFSGSGSGTDFTLTISSLQPEDFATYYCQQSNEPPYTFGQGTKLEIKR | ~0.04 | ~0.04 | ~0.04 | ~0.04 | ~0.6 | 0.131 |
| humanized anti-SIRPA antibody hD13_H2L3 (antibody, human IgG4 S228P, kappa, F234A L235A, V domains shown, hH2 heavy chain (IgG4proFALA) and hL3 kappa light chain; also called H2L3 antibody) VH: EVQLVESGGGVVQPGRSLRLSCAASGFTFSDYGMIWVRQAPGKGLEWVASISSSSSYIYYADSVKGRFTISRDNSKNTLYLQMNSLRAEDTAVYYCARRYYGFNYPFDYWGQGTMVTVSS VL: DTQLTQSPSSLSASVGQRVTITCGASKSVRTYMHWYQQKPGKQPKLLIYSASNLEAGVPSRFSGSGSGTDFTLTISSLQPEDFATYYCQQSNEPPYTFGQGTKLEIKR | ~0.04 | ~0.04 | ~0.04 | ~0.04 | ~0.6 | 0.0859 |
